From PMC5910400

Target: CXCL8 (human)

| Substance | mean IC50 (three biological replicates) of inhibition of primary human granulocyte migration induced by the EC80 dose of CXCL8 |
| --- | --- |
| P1156:G4S:P1243 two-warhead evasin (from UniProt V5HBW0;A0A0C9S461) | 7.5e-09 M |
| P1243:G4S:P1156 two-warhead evasin (from UniProt A0A0C9S461;V5HBW0) | 3.8e-08 M |
